Data: US20120121587A1 (Chugai, published 2012)
Read-outs that look alike come from different tables or passages of the source.

What was measured:
Assay in all cases: SPR (Biacore T100): antibody captured on Protein A, GST-FND1 as analyte
[1] = target: T1, Human recombinant AXL-FND1 (GST-FND1), from pET-41b(+) (human, UniProt P30530 225-331)
T1 construct: Expressed in E. coli, purified on Glutathione Sepharose; analyte in all Biacore measurements; GST put first by the usual layout of pET-41; not shown: GST-tag of vector pET-41b(+) (Novagen)
T1 sequence (looked up): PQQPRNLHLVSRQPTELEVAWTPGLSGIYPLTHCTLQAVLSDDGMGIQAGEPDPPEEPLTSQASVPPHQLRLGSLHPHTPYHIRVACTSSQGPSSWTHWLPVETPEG
Procedure: (§1) Kinetic analyses of antigen-antibody reactions of humanized AXL antibodies were carried out using Biacore T100 (BIACORE). rec-Protein A (Zymed) (hereinafter, Protein A) was immobilized onto a sensor chip, various antibodies were bound to it, then an antigen as the analyte was flushed to measure the antibody-antigen interaction. Human recombinant AXL-FND1 (prepared in 2-2; hereinafter referred to as GST-FND1) prepared at various concentrations was used as the antigen. From the sensorgrams obtained through the measurements, kinetic parameters, namely binding rate constant kₐ (1/Ms) and dissociation rate constant kd (1/s), were calculated, and Kd (M) was calculated based on these values. Biacore T100 Evaluation Software (BIACORE) was used to calculate each of the parameters.
The sensor chips were produced by immobilizing approximately 3000 RU of Protein A onto CM5 (BIACORE) by amine coupling. Using the produced sensor chip, kinetic analyses were carried out on the interaction between the Protein A-bound antibodies and GST-FND1. HBS-EP+ was used as the running buffer, and the flow rate was set to 30 μL/min. Each antibody was prepared at 1 μg/mL using the running buffer, and was subjected to binding with Protein A for two minutes. GST-FND1 as the analyte was prepared at 0.5 and 2.0 μg/mL using HBS-EP+. […]

[2] = target: T1, Human recombinant AXL-FND1 (GST-FND1), …; remark: listed apart in the source
How it was run: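 Antibodies (1 μg/mL) were captured for 2 min on a Protein A CM5 chip. GST-FND1 (0.5 and 2.0 μg/mL) in HBS-EP+ was flowed at 30 μL/min with 2 min association and 2 min dissociation at 25° C. ka and kd were fitted from sensorgrams and Kd was calculated from them.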

[3] = target: T1, Human recombinant AXL-FND1 (GST-FND1), …; remark: listed apart in the source
Procedure: as §1
The sensor chips were produced by immobilizing approximately 3000 RU of Protein A onto CM5 (BIACORE) by amine coupling. Using the produced sensor chip, kinetic analyses were carried out on the interaction between the Protein A-bound antibodies and GST-FND1. HBS-EP+ was used as the running buffer, and the flow rate was set to 30 μL/min. Each antibody was prepared at 1 μg/mL using the running buffer, and was subjected to binding with Protein A for two minutes. GST-FND1 as the analyte was prepared at 0.5 and 2.0 μg/mL using HBS-EP+. Measurements were carried out by first binding the various humanized AXL antibodies, chimeric AXL antibodies, or mouse AXL antibodies of interest to Protein A, then applying an analyte solution to them for a two-minute interaction, and then switching to HBS-EP+ (BIACORE) for a two-minute measurement of the dissociation phase. After completion of measurement of the dissociation phase, 30 μL of 10 mM glycine-HCl (pH 2.0) was used for washing to regenerate the sensor chip. Such binding, dissociation, and regeneration were defined as one cycle of analysis. All experiments were performed at 25° C.
Affinity measurements on the produced variants were carried out by the method of Example 2.

Measured: Kd

B1: H9/L0 (antibody, human IgG1, kappa)
heavy: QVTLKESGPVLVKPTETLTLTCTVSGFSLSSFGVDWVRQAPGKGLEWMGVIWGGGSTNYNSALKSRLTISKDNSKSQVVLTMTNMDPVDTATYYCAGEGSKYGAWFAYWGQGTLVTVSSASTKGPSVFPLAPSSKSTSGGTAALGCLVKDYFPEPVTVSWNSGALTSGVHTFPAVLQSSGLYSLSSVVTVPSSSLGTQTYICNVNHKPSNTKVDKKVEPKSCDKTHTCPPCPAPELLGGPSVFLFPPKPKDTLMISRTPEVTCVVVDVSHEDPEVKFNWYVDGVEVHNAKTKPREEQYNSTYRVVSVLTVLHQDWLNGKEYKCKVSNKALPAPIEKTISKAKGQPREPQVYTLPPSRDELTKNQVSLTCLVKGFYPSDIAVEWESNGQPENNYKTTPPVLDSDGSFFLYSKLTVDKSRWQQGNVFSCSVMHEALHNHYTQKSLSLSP
light: DVVMTQSPLSLPVTLGQPASISCRSSQNIVHTNGNTYLEWYQQKPGKAPELLIYKVSNRFSGVPDRFSGSGSGTDFTLKISRVEAEDVGVYYCFQGSHIPFTFGQGTKLEIKRTVAAPSVFIFPPSDEQLKSGTASVVCLLNNFYPREAKVQWKVDNALQSGNSQESVTEQDSKDSTYSLSSTLTLSKADYEKHKVYACEVTHQGLSSPVTKSFNRGEC
notes: also called humanized Ax225 antibody (H9/L0)
3.58 nM: [1] | [2] | [3]
